Substrate: BHET
Conditions: 120 h

B1: unnamed (protein)
chain: MKTSVTNFAKVTLTVATLLASAIASAQYTKGPDPTVAGLERDGSFTVRTTTVSSLAAVGFGKGTIYYPSAAGSYGVIAVSPGFTAYQSSISWIGSRLASHGFVVITIDTNTTSDQPDSRGSQLKAALDKVVSLSKSSSNVLYNKVDASRLAVAGHSMGGGGTLSAARDNPSYKAAVPLAPWHTTKSWPTLTVPTLIIGGEGDTVAGVSSHSIPFYTSISNSTKKAYMELNGEDHFFPQDATQYPLVGKYMISWFKRFVDNDTRYSAFICGAPHQTQIAVASKISDYRSNC
- plate clearing: not clears the plate

B2: unnamed (protein)
chain: MKTKRHRTATTTVPLPKRSRLARLALAAALLLLSFAAQAQVVIFQENFNSGLGQFTASGTVSTSSGGARMQGCYGCTDGAITSSPISTVGFTNLSLSFDRTTTGLDSGEAGIAEYSTNGSTWTVIESTQSTSSGRVTIALPAAAAGQAALRLRFRVNASLSSETYTVDNIQLEGTPGGGPGGNPYQRGPDPTAALLEASTGPFTYATTTVSSTAASGYGGGTIYYPTNTAGPFAAIAVCPGYTATQSSISWWGPRLASHGFVVITIDTNSTSDQPSSRATQLMAALNQLVTFSNTSGHPIYGKVDPNRLGVMGHSMGGGGTLIAARDNPTLKAAIPLAPWNSSTNFSGVTVPTLIVACESDTIAPVSSHALPFYNSIPSSTKKAYLEINNGDHFCVTTGNSYKAILGKYGVAWMKRFLDNDTRYSPFLCGAPHQADLSGSAISEYRDNCPY
- plate clearing: clears the plate (z > 3 vs empty vector)

B3: unnamed (protein)
chain: MATMPSGTTALLSVTFFCTTPPSALSLKRHRYPSFRFRSPISVFLSRTHDYMQCRAPWGCMYSLGTPRGSVASRRTINEFLVGGVTQMNTKVQGSSASSAPKVGYPAKSLLAAGILLASFAANADVLFQEDFNAGLGQFTSGGDVTVTSSGARMQGCYGCTDGSITSGAISTVGFNTISLTFTRSTTGLDSGEAGIAEFSTNGSTWTTLESVRTASGARTVALPSTAAGQSALRIRFRINASLSSEYYTVDGVRVEGTPDGTPCTDCPPTGETAIGPDPTTATLEATAGSFTVATINVPSSVTGYGGGVIYYPTAAGTYGVVAMCPGYTASASSLAWWGTRLASWGLIVHIIDTNSTGDFPASRATQLIAALDYVKALNTSSTSPLRGKVANREAVSGHSMGGGGTLIAANNNASRTTLRAAFAMTPWSSSPDSFPSIRAATFVLGCESDNVASVSSHAYPFYVSIPSTVKKAYGEINNADHYCPTQSNPYKAQLGKYGVAWMKRHLEGDTRFDPWLCGAPHQQVVSGTFWSRYLSTCPY
- plate clearing: not clears the plate

B4: unnamed (protein)
chain: MPMSLASASTLSGRAYSRSMRSRTRRRRARSRRRVPPVSARAETSKGSIGMPSSYGGARRGFSLGHPRGVRRGCVQATRRVRFLDWPRPAASRGAGDPSRGDTMTGTISSRIAMRAVACCIGLFAFTAGSASAQIGPDPTSASLNATAGSFAVSTSRVTLARGFGGGTIYYPTAAGSYGVVAISPGFTATESSIAWLGRRLATHGLVVITMNTNTTLDQPASRATQLMAALNHVVNSASSTVRSRVDSTRLAVAGHSMGGGGALIAAEDNPTLKAALPLTPWNLSTSFTQVRVPTLIVGSDGDTVAPVAAHARPFYASLPATTFKAYAELNAASHFTPNSTNTPIGRYGVTWMKRFVDADTRYSPFLCGAPHTAYATALVFDRYSQNCPY
- plate clearing: not clears the plate

B5: unnamed (protein)
chain: MKKSIFSKLVVSAGALLLSSTLYASGGGSGGGGSVPPVGNNPCGPDPSSSALSRTGSSGPFSVATKNVSSFSASGFGGGTIHYPTNSNCGRMGGIAVVPGYVSYESSIEWWGPRLASWGFVVITINTNSIYDQPNSRADQLSAALDHIIDDSTVGSLVDPDRLGAIGWSMGGGGSLKLATDRARVRAIIPQAPWYSGSYGSMDTPAFMIACENDAIAPTSSHVDDFYRDASGPKMKIEVNNGSHYCANSGYNESLLGKPGIAWMKRYIDGDTRYNQFLCGNESYGSSYEVSDYDYASCP
- plate clearing: not clears the plate

B6: unnamed (protein)
chain: MRKILLSVFTILSLNSYSQCDDVISSSITNPGIYEVATLSESDGVRNGADYYGSTIYYPINTNNFLGSIVIVPGFVSYEFSIQEWGPFLASHGIVCMTIGTNSIFEQPNQRATALLDAMVSLKEENSRNASPLNSKLDIDNIALGGWSMGGGGAQIAAKMDSSIKVVIALCPWLETGLISEEYLNHQAPILFISAEYDGIANASLHATPQYELSSETTPKLIYEVANGGHTVANYPTSGNGEVGLIALSWLKKYLLNEDCYCPILLESPETASMYMTNINCENSNLNAQEIECTEGWSIISTYVNPINTNFSNFIAPVVNNLIIAKDYIGNAYLPEWDYNGIGNIEQGQGYLIKMLNTMSLAVVGEQIIASENSISLNEGWNLFANFNTESTNSDLSFAALVETENVIIIKDYIGNAMLPEWEFNGLGDLQPGRGYQIKVTANCELQY
- plate clearing: not clears the plate

B7: unnamed (protein)
chain: MKTTTFKKSALSALTLLFSLSAFSGGGGGDDGNNDQLPAPDTCNSNCGYEIGPNPTLSFLEASQGPLSVSTTNVSSSVDGFGGGTIYYPTNTSQEMAAIAVAPGFTNTQSAIQWWGPILASHGFVVITIDTNGRFDQPESRSRQLDAALSYLISEGNRSSSPISGLVDENRLATMGFSMGGGGTLRSASRNRLSAAVPLAPWNTGGNNFDQIGVPTLIFACENDSTARVNSHASPFYNRIPSSTDKAYLEINNGPHNCANGNNSSNNALLSTYGVSWMKRFLDKDSRYNQFLCGPNHEANSRISEYRDTCNY
- plate clearing: not clears the plate

B8: unnamed (protein)
chain: MRDPPEYGTQTLHYPTDADPPFAAIAIVPGFVSPESSIIEWGPFLASHGIVVLTIGTNSGSDSPEIRSTALLAALETIKSEHARAGSPIEGKIDTTRLAVGGWSMGGGGTLLTITAHPELKAGLAICPWYTNAFAFAGNTVPVIMFAGTADVLAGGMSQGFYDAIPASTPKMLFEIAGADHFYANNPLMPNVQVGLYGLSWLKVFLEGDDRYRQFLLGPPQNASDFRTTVQ
- plate clearing: not clears the plate

B9: unnamed (protein)
chain: MKSFVKMCVGCVLALVMLAGISSADYRRGPNPSDSMLEARTGPFDFERSTVSRLSAGGYGGGTLFYPTNTNEGPFAGIVVCPGYMESDGQVDWWGPRLASNGFVVFVMQPQNTYMNQPSQRGNQMLDALDDLVSWNNSRNHAIYGLLDPNRLGLMGHSMGGGGTLIAAEDEANNPAVKAAIPLAPYALEKDFSRITCPTMIVACGADMIAPVAQHAMPFYRSLSDSIDKMFIEFAGDSHFCVIDGNMHMPTLGKLGIAWMKVFMDEDARYLTFLNDTNYGATMEVSRFQSNRPYSVPGGGTSGDCQQWTSSNDQHVSAGRAYTQQETVGCDTVTTYYAVGSNMSIGTSGYSSTTLHSSDGGNSYYTGSCP
- plate clearing: not clears the plate

B10: unnamed (protein)
chain: MRPSSSSLHTAVPLRPRSRAMTALIALATTLGLALALLTAAAPPAAAADLLSQGRPATSSSTENTSTPASAAVDGNTGTRWSSTFSDPQWLSVDLGATATISQVVLRWETAYARAFQIQTSTNGTAWTTVHSSTSGTGGVQTLDVNGNGRYVRMLGTQRGTTYGYSLFEFQVYGSGGGTPPGNGIPDPTATSLETANGPLTTANYTVPNPSGYGSGTVTYPTSSGSYPSVVLMPGYQGTQQNLQWLAPRLASWGFVVVNVGTNTLTDDPESRGRQISAAGTQLLALGNAAGNPLSGKVNGTLGAVGHSMGGGGVMAALRDDSRFRAGVPTAPYHPNANFSSVTEPTFFLTCQSDSVAHGNTYAVPWYNSMSQAEKLYIEVPGDHLCPMTGSGNKAKQGKWIVSFLSLWLRADTRFGPFLCGPVRDPDKNNTSLVTRWMDTCAF
- plate clearing: not clears the plate

B11: unnamed (protein)
chain: MIHHFSVRALLAAGALLASAAVSAQTNPYERGPAPTTSSLEASRGPFSYQSFTVSRPSGYGAGTVYYPTNAGGPVGAIAIVPGFTARQSSINWWGPRLASHGFVVITIDTNSTLDQPDSRSRQQMAALNQVATLSRTSSSPIYNKVDTSRLGVMGWSMGGGGSLISARDNPSLKAAAPQAPWSSSKNFSSVTVPTLIIACENDSIAPVNQHADPFYDSMSRNPREFLEINGGSHSCANSGNSNQPLLGKKGVAWMKRFIDNDTRYTSFACSNPNSTRVSDFRVAACN
- plate clearing: not clears the plate

B12: unnamed (protein)
chain: MKTNRRRRLALAAAALLLSVAAQAQNGSAPPGPDPDPDPNPPESDNPYQRGPDPTAASLEASSGPFAVSTTTVSSASGFGGGTIYYPTNTEGPFAAIAVVPGFVGTESSIDWWGPRLASHGFVVITIDTNSVFDQPDSRATQLMAALDYVISQSNTSSSPISGMVDSNRLGVMGHSMGGGGSLIAARDNPTLKAAIPLAPWNSSTNFSAITVPTLIIACENDTVAPVSSHASPFYNSIPSSTDKAFLEINGGDHFCANSGNSNKDILGKYGVAWMKRFLDNDTRYDPFLCGPNHEADGSAISEYRDTCPY
- plate clearing: not clears the plate

B13: unnamed (protein)
chain: MSTGTRVPHAGRAATAPVEGPRQRGRKMQHSLSTSRSRKRVTGILASLAVAVGVGIAAGPVAHGADNPHERGPDPSESSIEAVRGSYSISDRNVSSWVSGFGGGTIYYPTTTSDGDFGAVVISPGYTGTESTISWLGPRLASQGFVVLTMATNSIYDQPDSRARQLQAALDYLTDDSPVADRIDPDRLALMGHSMGGGGTLRAVDDNPDIKAAIPMTPWHLKKDWSSVTTPTLIFGAEDDSVARHETHAEPFYESFDRDLPKAYLELDGASHFAPNYSNTTIAKYSISWLKRFVDDDERYTQFLCPGPSTGWFSDVEKYESSCPL
- plate clearing: not clears the plate

B14: unnamed (protein)
chain: MKNITIRSTVRAAVAATLAATAVSGFAQTTAPTSASLNATAGPLAVSTSTVTAPRGFGGGTIYYPTTQARYGVIAISPGFTATETSLAWLGRRIATHGFVVITLNTLTTLDQPASRATQLMAALNHVVNSSPAAVKARIDTARLAVAGHSMGGGGALIAARDNPTLKASYSLTPWNTNSSFSTVRVPTMIVGADGDTIAPVGTHARPFYAALPGTTSKAYGELNNGTHFSPNSTNTPIGRYGVAWMKRFLDADTRYSTFLCGAEHTSYATALVFDRYNQNCPY
- plate clearing: not clears the plate
